# From PMC10899793, “Toxin release by conditional remodelling of ParDE1 from Mycobacterium tuberculosis leads to gyrase inhibition” (Nucleic Acids Research, 2023)
# T1: ParE1 toxin of Mycobacterium tuberculosis H37Rv (Mycobacterium tuberculosis H37Rv, UniProt P9WHG7 1-98)
# T1 construct: also called Rv1959c; not shown: 6His-SUMO, N-terminal, cleaved
# T1 sequence: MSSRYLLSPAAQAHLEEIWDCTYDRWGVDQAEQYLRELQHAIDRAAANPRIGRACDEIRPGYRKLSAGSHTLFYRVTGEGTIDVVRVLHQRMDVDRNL
# Assays:
# [1] = target: Mycobacterium tuberculosis DNA gyrase holoenzyme GyrB2A2 (Mycobacterium tuberculosis) (UniProt P9WG47)
# [2] = target: T1, ParE1 toxin of Mycobacterium …; test: SEC; conditions: both partners purified
# crystal structure = target: the molecule itself; test: crystal structure
# [3] = target: T1, ParE1 toxin of Mycobacterium …; test: mass photometry; conditions: both partners purified
# Sequence of Mycobacterium tuberculosis DNA gyrase holoenzyme GyrB2A2 (Mycobacterium tuberculosis) (P9WG47 whole entry, chain 1 of 2): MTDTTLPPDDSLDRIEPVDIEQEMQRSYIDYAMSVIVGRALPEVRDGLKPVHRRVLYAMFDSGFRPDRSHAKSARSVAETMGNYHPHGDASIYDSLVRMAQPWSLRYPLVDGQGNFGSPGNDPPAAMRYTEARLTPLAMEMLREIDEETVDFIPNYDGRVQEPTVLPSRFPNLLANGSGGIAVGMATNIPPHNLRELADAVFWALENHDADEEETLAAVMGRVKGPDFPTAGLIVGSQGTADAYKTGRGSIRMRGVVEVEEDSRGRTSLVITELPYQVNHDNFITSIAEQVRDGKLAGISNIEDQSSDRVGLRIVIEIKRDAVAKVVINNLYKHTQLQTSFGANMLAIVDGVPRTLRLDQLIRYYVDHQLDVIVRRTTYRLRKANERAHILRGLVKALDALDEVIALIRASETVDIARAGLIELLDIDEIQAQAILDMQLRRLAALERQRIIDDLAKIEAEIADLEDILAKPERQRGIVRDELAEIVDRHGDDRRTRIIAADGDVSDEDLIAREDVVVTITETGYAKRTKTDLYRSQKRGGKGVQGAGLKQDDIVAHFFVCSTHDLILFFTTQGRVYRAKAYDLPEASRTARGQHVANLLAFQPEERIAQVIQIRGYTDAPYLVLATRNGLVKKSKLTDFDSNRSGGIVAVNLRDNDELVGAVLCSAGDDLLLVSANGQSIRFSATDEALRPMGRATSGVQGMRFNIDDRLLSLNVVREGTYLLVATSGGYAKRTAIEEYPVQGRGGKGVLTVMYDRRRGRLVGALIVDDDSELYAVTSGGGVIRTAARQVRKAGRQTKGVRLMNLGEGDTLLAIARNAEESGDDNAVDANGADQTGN
# Sequence of Mycobacterium tuberculosis DNA gyrase holoenzyme GyrB2A2 (Mycobacterium tuberculosis) (P9WG45 whole entry, chain 2 of 2, further chain): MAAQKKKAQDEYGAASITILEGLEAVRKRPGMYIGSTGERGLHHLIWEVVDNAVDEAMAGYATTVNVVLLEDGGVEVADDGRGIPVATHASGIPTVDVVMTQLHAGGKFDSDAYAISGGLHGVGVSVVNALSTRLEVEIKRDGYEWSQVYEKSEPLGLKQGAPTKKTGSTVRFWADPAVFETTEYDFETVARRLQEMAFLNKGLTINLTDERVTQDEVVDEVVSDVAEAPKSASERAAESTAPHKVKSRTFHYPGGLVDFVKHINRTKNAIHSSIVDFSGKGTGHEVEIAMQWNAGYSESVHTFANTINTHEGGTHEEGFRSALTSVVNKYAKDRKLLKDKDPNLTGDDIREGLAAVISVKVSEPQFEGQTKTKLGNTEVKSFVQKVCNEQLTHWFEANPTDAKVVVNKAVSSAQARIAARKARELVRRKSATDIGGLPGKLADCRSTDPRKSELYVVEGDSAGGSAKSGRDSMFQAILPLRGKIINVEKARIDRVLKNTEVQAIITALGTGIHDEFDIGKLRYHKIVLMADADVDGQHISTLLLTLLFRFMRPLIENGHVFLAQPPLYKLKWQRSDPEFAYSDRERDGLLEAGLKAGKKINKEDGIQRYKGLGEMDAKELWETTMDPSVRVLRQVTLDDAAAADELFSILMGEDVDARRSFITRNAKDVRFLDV
Binder,linearisation of supercoiled pSG483 in the M. tuberculosis gyrase DNA relaxation (cleavage) assay; ParE2 titrated against constant GyrB2A2 (31.25 nM); value at the highest concentration tested (% of substrate pSG483 linearised) [1],stoichiometry N [2],stoichiometry N (crystal structure),stoichiometry N [3]
ParE2 toxin of Mycobacterium tuberculosis H37Rv (natural protein) MTRRLRVHNGVEDDLFEAFSYYADAAPDQIDRLYNLFVDAVTKRIPQAPNAFAPLFKHYRHIYLRPFRYYVAYRTTDEAIDILAVRHGMENPNAVEAEISGRTFE,50,,,
"ParD1 antitoxin of Mycobacterium tuberculosis H37Rv (natural protein, Antitoxin ParD1, gene parD1 (rv1960c), M. tuberculosis H37Rv; printed mass 9.21 kDa; residues are numbered up to R83; also called primary ParD1; auxiliary ParD1) MGKNTSFVLDEHYSAFIDGEIAAGRYRSASEVIRSALRLLEDRETQLRALREALEAGERSGSSTPFDFDGFLGRKRADASRGR",,2 ParD1 per ParE1 (4:2 heterohexamer),4,1 ParD1 per ParE1 (2:2 heterotetramer)
